We go through 2 molecules from paper PMC8113886, “The Rid family member RutC of Escherichia coli is a 3-aminoacrylate deaminase” (The Journal of Biological Chemistry, 2021).

One series has as its target T1, RidA (Salmonella enterica, UniProt Q7CP78).
T1 construct: full-length RidA; purification and tag not described here
T1 sequence (Q7CP78 1-128): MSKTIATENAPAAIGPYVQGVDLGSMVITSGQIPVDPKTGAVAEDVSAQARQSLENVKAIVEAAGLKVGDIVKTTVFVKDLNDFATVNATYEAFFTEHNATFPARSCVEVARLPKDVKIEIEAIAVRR
The series is described as follows: semicarbazone competition assay, absorbance at […] nm. The class given is biochemical. The following applies: imine generated in situ by L-amino acid oxidase from 10 mM L-methionine; 10 uM RidA, 50 mM potassium pyrophosphate pH 8.7, 23 °C.

Substrate in the series “purified protein”: NC=CC(=O)O
In words: purified protein. The class given is biochemical, Escherichia coli. The following applies: 3-AA generated in situ by 5 uM RutB, varied concentration is ureidoacrylate, not 3-AA, spontaneous deamination not subtracted, 3 uM RutC, 40 mM Tris-HCl pH 8.2, 23 °C.

For the molecule `CSCCC(=N)C(=O)O` [imino derivative of methionine], the “semicarbazone competition assay, absorbance at 248 nm” value at RidA was “RidA showed activity primarily on the imino derivatives of methionine and leucine”.

B1: RutC (Escherichia coli K-12) (protein)
chain: MPKSVIIPAGSSAPLAPFVPGTLADGVVYVSGTLAFDQHNNVLFADDPKAQTRHVLETIRKVIETAGGTMADVTFNSIFITDWKNYAAINEIYAEFFPGDKPARFCIQCGLVKPDALVEIATIAHIAK
Turning to B1, in the series “purified protein”, the Km (in general, the concentration of substrate that gives half-maximal velocity) was 9.1 ± 1.9 mM; the Vmax was 31.9 ± 3.9 nmoles of NADPH consumed min^-1; the turnover number (kcat) (as a rule, the maximal rate divided by the concentration of active sites) is 0.867 s⁻¹.
